T1: PpOdhB (beta-subunit of PpOpnDH, PpOdhABC) (Pseudomonas putida, UniProt Q88EK5+Q88EK6)
T1 construct: gene ooxB; N-terminal (His)6-tagged PpOdhB in the PpOdhABC complex (α4β4γ4); with PpOdhA (PP_4456) and PpOdhC
T1 sequence (Q88EK5 1-375): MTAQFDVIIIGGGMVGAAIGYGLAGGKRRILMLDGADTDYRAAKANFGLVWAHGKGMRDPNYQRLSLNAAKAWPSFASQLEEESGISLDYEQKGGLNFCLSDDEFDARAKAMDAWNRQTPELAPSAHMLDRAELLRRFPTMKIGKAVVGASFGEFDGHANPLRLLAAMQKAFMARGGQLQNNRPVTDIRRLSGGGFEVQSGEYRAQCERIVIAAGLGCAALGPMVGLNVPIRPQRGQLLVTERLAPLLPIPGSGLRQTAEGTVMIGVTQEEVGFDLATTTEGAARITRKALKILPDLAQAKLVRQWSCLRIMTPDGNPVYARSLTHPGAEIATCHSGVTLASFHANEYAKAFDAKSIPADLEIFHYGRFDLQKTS
T1 sequence (Q88EK6 2-464): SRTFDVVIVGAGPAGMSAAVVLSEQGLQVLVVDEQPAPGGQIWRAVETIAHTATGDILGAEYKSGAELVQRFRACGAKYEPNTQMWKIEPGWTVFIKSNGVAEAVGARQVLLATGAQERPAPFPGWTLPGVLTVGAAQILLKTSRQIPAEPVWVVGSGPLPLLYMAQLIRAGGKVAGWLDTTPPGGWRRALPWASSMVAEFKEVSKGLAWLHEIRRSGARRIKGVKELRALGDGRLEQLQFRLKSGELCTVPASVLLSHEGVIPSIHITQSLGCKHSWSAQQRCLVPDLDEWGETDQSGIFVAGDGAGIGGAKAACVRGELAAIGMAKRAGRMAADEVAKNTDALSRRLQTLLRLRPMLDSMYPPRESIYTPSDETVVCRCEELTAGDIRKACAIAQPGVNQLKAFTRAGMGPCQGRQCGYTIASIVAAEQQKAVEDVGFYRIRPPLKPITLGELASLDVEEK

T2: (His)6-tagged PpOdhB, β-subunit of opine dehydrogenase from Pseudomonas putida KT2440 (Pseudomonas putida KT2440, UniProt Q88EK5 1-375)
T2 construct: PpOdhB, product of gene PP_4457 of Pseudomonas putida KT2440; first gene of the operon PpOdhB-C-A; band of 42 kDa; Carries FAD; also called PP_4457; source: P. putida KT2442-oxyR1 harboring pUCP/PpOdhABC, co-expressed from the PpOdhB-C-A operon, purified (Ni-NTA); not shown: His6, N-terminal, kept
T2 sequence (looked up): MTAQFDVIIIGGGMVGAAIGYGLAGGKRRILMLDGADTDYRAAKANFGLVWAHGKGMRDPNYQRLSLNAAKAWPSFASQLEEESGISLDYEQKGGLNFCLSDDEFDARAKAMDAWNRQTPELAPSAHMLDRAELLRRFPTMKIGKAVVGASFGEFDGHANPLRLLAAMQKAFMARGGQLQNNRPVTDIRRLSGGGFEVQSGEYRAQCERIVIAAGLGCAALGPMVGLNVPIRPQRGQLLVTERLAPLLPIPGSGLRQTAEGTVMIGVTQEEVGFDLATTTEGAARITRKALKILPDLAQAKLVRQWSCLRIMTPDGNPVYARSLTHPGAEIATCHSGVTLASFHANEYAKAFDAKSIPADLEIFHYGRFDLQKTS


Assays:
[1] = target: (His)6-tagged PpOdhB, β-subunit of opine dehydrogenase from Pseudomonas putida KT2440 (Pseudomonas putida KT2440) (UniProt Q88EK5); test: pull-down; PpOdhB-C-A operon with N-terminal (His)6-tag on OdhB expressed in P. putida cells; Ni-NTA chromatography in buffer with Tween-20, 300 mM NaCl, pH 8.0; bands on SDS-PAGE identified by N-terminal sequencing; molar ratio by image scanning of SDS-PAGE peak areas (ImageJ)
[2] = target: T1, PpOdhB (beta-subunit of PpOpnDH, PpOdhABC); test: inhibition of nopaline ([…]) dehydrogenase activity of the purified enzyme; format: biochemical
[3] = target: T2, (His)6-tagged PpOdhB, β-subunit of …; test: pull-down; PpOdhB-C-A operon with N-terminal (His)6-tag on OdhB expressed in P. putida cells; Ni-NTA chromatography in buffer with Tween-20, 300 mM NaCl, pH 8.0; bands on SDS-PAGE identified by N-terminal sequencing; molar ratio by image scanning of SDS-PAGE peak areas (ImageJ); settings: partners not purified
[4] = substrate: C[C@@H](N[C@@H](CCCNC(=N)N)C(=O)O)C(=O)O; test: purified protein; settings: FAD, FMN
[5] = substrate: N=C(N)NCCC[C@H](N[C@H](CCC(=O)O)C(=O)O)C(=O)O; test: purified protein; settings: FAD, FMN, [2Fe-2S] the β- and α-subunit were both necessary for substrate binding

| Molecule | Km [4] | kcat [4] | kcat/Km [4] | other results |
| --- | --- | --- | --- | --- |
| PpOdhC, γ-subunit of opine dehydrogenase from Pseudomonas putida KT2440 (enzyme) |  |  |  | stoichiometry N [1]: 1 |
| O=C(O)CCC(=O)C(=O)O [α-ketoglutarate] |  |  |  | IC50 [2]: 589 µM |
| PpOdhA, α-subunit of opine dehydrogenase from Pseudomonas putida KT2440 (enzyme, UniProt Q88EK6 1-464, looked up, PpOdhA, product of gene PP_4456 of Pseudomonas putida KT2440; GTG used as start codon; band of 46 kDa (45 kDa in the methods); The start (GTG codon) may differ from the annotated entry; also called PP_4456) MSRTFDVVIVGAGPAGMSAAVVLSEQGLQVLVVDEQPAPGGQIWRAVETIAHTATGDILGAEYKSGAELVQRFRACGAKYEPNTQMWKIEPGWTVFIKSNGVAEAVGARQVLLATGAQERPAPFPGWTLPGVLTVGAAQILLKTSRQIPAEPVWVVGSGPLPLLYMAQLIRAGGKVAGWLDTTPPGGWRRALPWASSMVAEFKEVSKGLAWLHEIRRSGARRIKGVKELRALGDGRLEQLQFRLKSGELCTVPASVLLSHEGVIPSIHITQSLGCKHSWSAQQRCLVPDLDEWGETDQSGIFVAGDGAGIGGAKAACVRGELAAIGMAKRAGRMAADEVAKNTDALSRRLQTLLRLRPMLDSMYPPRESIYTPSDETVVCRCEELTAGDIRKACAIAQPGVNQLKAFTRAGMGPCQGRQCGYTIASIVAAEQQKAVEDVGFYRIRPPLKPITLGELASLDVEEK |  |  |  | stoichiometry N [3]: ~1 |
| BjOdhB2 (beta-subunit of BjOpnDH2, BjOdhAB2C) (Bradyrhizobium diazoefficiens USDA 110) (protein) chain 1: MTGNVDAIVIGGGIHGCSTTLHLCLAGLKPVLIEKDYAGRHASGVNAGGVRQLARHVPEIPLSIRSMGIWERITDLLDDDCSFESHGQVLVAENEDELAVCRARVAELNALGFTHEELIDATELRRLVPAVAETCPGGVVSRRDGAANPAQTTTAFRRKAEQLGATVREGVAASNIRYSDGLWYVDVGSDTYAAPVLVNAAGAWAGKIAAALGEPVPVETVAPMLMITSRVPHFIDPVVILRGRKLSFKQFSNGTVLIGGGHLATPYQDRNETVLDWKSLAISARTVFELFPVMRSATIVRAWAGIEAKMKDDIPVFGPSSRHKGLYHQFGFSLHGFQLGPGAGAVMAELIVNGGTQTRIGDLGIDRFHPSTL chain 2: MTVAPKREDYDVVVIGAGPAGLAAAATSAEAGLSTLLLDENIGPGGQVFRAISSTPVTDRNQLGADYWVGADLVQSLRASNAEVIQRAMVWSLDRNLDIAVSVGGASAFVKAKRVILATGALERPFPIPGWTLPGVMTAGAAQTMLKSSALVPDGRTVIAGQGPLLWLLAAQILRLGGRIDRILDTTERGNYFAALPHAFAFLTSPYFAKGLSMMREVKAKVQVVTGVTELTASGDGQLANVSYVAGGKRETLPVDLLLLHQGVVPNVNLAMAAGVEHRWDELQLCWSPVLDANGSSSVAGIAIAGDGAGIGGANAAVVRGRIAARAAVEALAPAAAAKLASMATLRADLAKAERGRAFLDTLFRPAPQFRIPSGDTIVCRCEEVTAKDVLDSVAIGATGPNQLKAYRRTGMGPCQGRLCGLTVTELMAQARGKSPQEIGYYRLRAPVKPITLAELAAVPKTEDDVKAVVRG | 19.5 mM | 72.8 s⁻¹ | 3730 M⁻¹ s⁻¹ |  |
| BjOdhB1 (beta-subunit of BjOpnDH1, BjOdhAB1C) (Bradyrhizobium diazoefficiens USDA 110) (protein) chain 1: MSGEYDVAVVGGGLLGSAIAWGLGRLGKKVAVLDEGDITKRASRANFALVWVQSKGLGMPAYTVWTVQASQAWGRLAFELKQQTGLDVSLQQNGGFHLTLGEDEFGQRTELVKRMHNQVGAADYKMEMLPASEVKKALPLIGPEVSGGSYCPLDGHVNSLRTFRAFHTGFMAFGIDYLPERPVSAISKSGGEFRLTTPKGELRAAKVVLAAGNANQTLAPMVGLHAPMGPTRGQIVVTERTMPFLPHPLTTIRQTDEGTVMIGDSKEDELDDRTLKHSISAVMTDRAQRMFPHLSRLNVIRSWAGIRVMPQDGFPIYDQSETHPGAFVACCHSGVTLASNHAFEIARMVAQGALEPELVGAFSASRFGGAGAANNSGY chain 2: MTVAPKREDYDVVVIGAGPAGLAAAATSAEAGLSTLLLDENIGPGGQVFRAISSTPVTDRNQLGADYWVGADLVQSLRASNAEVIQRAMVWSLDRNLDIAVSVGGASAFVKAKRVILATGALERPFPIPGWTLPGVMTAGAAQTMLKSSALVPDGRTVIAGQGPLLWLLAAQILRLGGRIDRILDTTERGNYFAALPHAFAFLTSPYFAKGLSMMREVKAKVQVVTGVTELTASGDGQLANVSYVAGGKRETLPVDLLLLHQGVVPNVNLAMAAGVEHRWDELQLCWSPVLDANGSSSVAGIAIAGDGAGIGGANAAVVRGRIAARAAVEALAPAAAAKLASMATLRADLAKAERGRAFLDTLFRPAPQFRIPSGDTIVCRCEEVTAKDVLDSVAIGATGPNQLKAYRRTGMGPCQGRLCGLTVTELMAQARGKSPQEIGYYRLRAPVKPITLAELAAVPKTEDDVKAVVRG | 4.81 mM | 0.0982 s⁻¹ | 20.3 M⁻¹ s⁻¹ |  |
| PpOdhB (beta-subunit of PpOpnDH, PpOdhABC) (Pseudomonas putida KT2440) (protein) chain 1: MTAQFDVIIIGGGMVGAAIGYGLAGGKRRILMLDGADTDYRAAKANFGLVWAHGKGMRDPNYQRLSLNAAKAWPSFASQLEEESGISLDYEQKGGLNFCLSDDEFDARAKAMDAWNRQTPELAPSAHMLDRAELLRRFPTMKIGKAVVGASFGEFDGHANPLRLLAAMQKAFMARGGQLQNNRPVTDIRRLSGGGFEVQSGEYRAQCERIVIAAGLGCAALGPMVGLNVPIRPQRGQLLVTERLAPLLPIPGSGLRQTAEGTVMIGVTQEEVGFDLATTTEGAARITRKALKILPDLAQAKLVRQWSCLRIMTPDGNPVYARSLTHPGAEIATCHSGVTLASFHANEYAKAFDAKSIPADLEIFHYGRFDLQKTS chain 2: SRTFDVVIVGAGPAGMSAAVVLSEQGLQVLVVDEQPAPGGQIWRAVETIAHTATGDILGAEYKSGAELVQRFRACGAKYEPNTQMWKIEPGWTVFIKSNGVAEAVGARQVLLATGAQERPAPFPGWTLPGVLTVGAAQILLKTSRQIPAEPVWVVGSGPLPLLYMAQLIRAGGKVAGWLDTTPPGGWRRALPWASSMVAEFKEVSKGLAWLHEIRRSGARRIKGVKELRALGDGRLEQLQFRLKSGELCTVPASVLLSHEGVIPSIHITQSLGCKHSWSAQQRCLVPDLDEWGETDQSGIFVAGDGAGIGGAKAACVRGELAAIGMAKRAGRMAADEVAKNTDALSRRLQTLLRLRPMLDSMYPPRESIYTPSDETVVCRCEELTAGDIRKACAIAQPGVNQLKAFTRAGMGPCQGRQCGYTIASIVAAEQQKAVEDVGFYRIRPPLKPITLGELASLDVEEK |  |  |  | Km [5]: 0.476 mM; kcat [5]: 315 s⁻¹; kcat/Km [5]: 663000 M⁻¹ s⁻¹ |
